Experiments:
Settings in all cases: FMN input: 0 or 200 uM; Eterna round: R93 (includes R88 designs)
[1] = tested on: MS2 coat protein; assay: apparent KD of MS2 coat protein, switch ON state; designed switch direction (-1 OFF switch, 1 ON switch): 1; higher = weaker reporter binding
In short: (§1)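 Designed RNA switches, transcribed on-chip from Illumina sequencing clusters, were titrated with SNAP-549-labelled MS2 coat protein from 0.7 or 1.5 nM to 3 µM in twofold steps. The solution was 100 mM Tris-HCl pH 7.5, 80 mM KCl, 4 mM MgCl2, with constant ligand or without it. Apparent KD is the median over each design's normalised cluster binding-curve fits.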

[2] = tested on: MS2 coat protein; assay: apparent KD of MS2 coat protein, switch OFF state (with FMN for OFF switches, without FMN for ON switches); designed switch direction (-1 OFF switch, 1 ON switch): 1; higher = weaker reporter binding
In short: as §1

[3] = tested on: MS2 coat protein; assay: apparent KD of MS2 coat protein, switch OFF state (with FMN for OFF switches, without FMN for ON switches); designed switch direction (-1 OFF switch, 1 ON switch): -1; higher = weaker reporter binding
In short: as §1

[4] = tested on: MS2 coat protein; assay: apparent KD of MS2 coat protein, switch ON state; designed switch direction (-1 OFF switch, 1 ON switch): -1; higher = weaker reporter binding
In short: as §1

Sequence	apparent KD of MS2 coat protein [1] [nM]	apparent KD of MS2 coat protein [2] [nM]	apparent KD of MS2 coat protein [3] [nM]	apparent KD of MS2 coat protein [4] [nM]
GGGAGACAUGAGGAUCACCCAUGUGAGAAGAGGCGAGGAUAUCGAAAGAAAGAAGAGAAACGAGAAGGCGCGAGUA [salish99-SS1-050]	29.7	65.5	–	–
CGAGUACAUGAGGAUCACCCAUGUUAUGAAUUGUCAGGAUAUGGGUAGAGGUGACAUGCGCCAGAAGGGACGUCUG [JR_SS001_Sub1005]	194	52.8	–	–
UGGAGACAUGAGGAUCACCCAUGUGAGAAGAGGCGAGGAUAUCGAAAGAAAGAAGAGAAACGAGAAGGCGCGAGAC [salish99-SS1-045]	25.2	41.9	–	–
GUGUAAAGAAUCGAGGAUAUCCUGAAAAGCACAUGAGGAUCACCCAUGUAAGAGCGAGAAUAAUGGGAGAAGGCGAGUUAUCGGU [JR_SS002_Sub1711]	20.1	33	–	–
GUGGCCUAGGCACAGGAUAUGUUGCUCGUAACAUGAGGAUCACCCAUGUGCCUAUGAGAUUUAAUGCAGAAGGGUGCACGCCACG [Edbeso]	14.7	233	–	–
AAAAAACAUGAGGAUCACCCAUGUAAAAAAAUCGCAGGAUAUAAGGUCGCGAAAGCGACCUUAGAAGGGCGAUCCU [Louisiana 1 - Jieux - Same State 1]	46.3	75.8	–	–
AGAAAACAUGAGGAUCACCCAUGUAGAAAUAUGGGAGGAUAUACAAAGACGAAAGUCAAGGUAGAAGGCCUAAAGA [Mat - Same State 1 - Meechl mod - D124]	20	99.9	–	–
GUGGACAUAGGAUAGGAUAUAUGAAUAAUUACAUGAGGAUCACCCAUGUCCAUUUAUAUGGGAACAUAGAAGGGUUGUAGUUAAC [Mat - Same state - Malcolm Mod - D131]	117	81.9	–	–
AAUAAUUAUACGAAGGAUAUCGGUAAUUAGACAUGAGGAUCACCCAUGUUAUAUGGUUAAAUAUUCGAGAAGGUCGAGGGUGAAA [JR_SS002_Sub505]	36.1	32.7	–	–
GAGGACGUAGGAUAGGAUAUGUGAAUAAUUACAUGAGGAUCACCCAUGUCCAUUUAUAUGGGAACAUAGAAGGGUUUUCGUUAUC [SameState2 Malc#40]	646	387	–	–
AUAAAACAUGAGGAUCACCCAUGUAGACACGAUGGAGGAUAUACUAGAUCGAAAGAUCUAGUAGAAGGCCGACGUA [Mat - Same State 1 - JL mod - D95]	18.4	22.6	–	–
AGAAAUAAAAGGCAGGAUAUCCAAAAGAAAACAUGAGGAUCACCCAUGUAAAAGAAAAUAAAGUGGGAGAAGGGCCAAAAUAAAG [My design (73%) + Space bases]	11.7	36.5	–	–
AAAAAACAUGAGGAUCACCCAUGUAAAAAAAUGGGAGGAUAUACAAAAAAAAAAAAAAAAGUAGAAGGCCUGAAAA [same state 10]	62.3	533	–	–
AAUAAAAAUAGUCAGGAUAUGAGAAAUAAGACAUGAGGAUCACCCAUGUAAUAAGUAAAAGUAAAUUAGAAGGGACAGGGUGAAA [JR_SS002_Sub019]	200	167	–	–
AACAAUCUAUCUGAGGAUAUAUGUCAAAAGACAUGAGGAUCACCCAUGUAAAAACAUGAAAAAACAUAGAAGGCAGAUAGAUUGA [SS2: 1134]	41.5	120	–	–
GAAAAACAUGAGGAUCACCCAUGUGUAAAUAUGGGAGGAUAUACAAAGACGUAAGUCAGAGUAGAAGGCCUAAAAG [Garnet 93]	29	176	–	–
AGAAAACAUGAGGAUCACCCAUGUAGGAAUAUGGGAGGAUAUACAAAGACGAAAGUCAGAGUAGAAGGCCUAAGAA [salish99-SS1-087]	24.1	81.8	–	–
GAAAAACAUGAGGAUCACCCAUGUGAAAACUUGGGAGGAUAUACUAAGACGAAAGUCGAGGUAGAAGGCCUAAAAG [Same State 1.4i (Mat - Mod of Eli - )]	22.4	74.1	–	–
AAAAAAAAAUCUCAGGAUAUAGAUUAUAGAACAUGAGGAUCACCCAUGUAGUGAAAGAAGAAAAACUAGAAGGGAGGAAAAAAAAA [Same State 2 #2]	48.2	70.8	–	–
AACAUGUCAGGAUAUGCAAAAGGAGACUGACACGCGAGUGAGCAGAAGGGACAUGAGGAUCACCCAUGUUCAAA [Mat - Mod of Meechl]	–	–	15.6	20.9
AAAAAGGGAGGAUAUACAGGAGGUAAGGUCAAAAAAAAAAAACAUGAGGAUCACCCAUGUAGAAGGUUUAAAAA [Ecls2-V]	–	–	31	25.8
AAAUCGGCAGGAUAUACAUGAAAAUUAAAAAAAAAAAAAAAACAUGAGGAUCACCCAUGUAGAAGGGUCAAAAA [Exclusion 2 - Omei 3]	–	–	75.2	77.9

Sequence	apparent KD of MS2 coat protein [1] [nM]	apparent KD of MS2 coat protein [2] [nM]	apparent KD of MS2 coat protein [3] [nM]	apparent KD of MS2 coat protein [4] [nM]
AAGAAGCAAGGAUAUACAUGAAAGAAAGAAAAGAAAAGAAAACAUGAGGAUCACCCAUGUAGAAGGUGCUAGAA [EteRNA is fun!]	–	–	47.8	34.6
AAAAAGGCAGGAUAUACAUGAGGAUCACCCAUGUAAAGAAAGAAAGAAGAAAGGGAAAGUAGAAGGGCCAAAAA [Ex3 sub 1]	–	–	41.2	34.4
GGUUGGCGAGGAUAUACAUGAGGAUCACCCAUGUGAGAGAAAAAAGUGAGAAUGAAAAGUAGAAGGCGCUGACG [salish99-ex3-35]	–	–	215	46.2
AAGAAGCAAGGAUAUACAUGAGGAUCACCCAUGUAAAAGAAAGAAAAGGGAAAGAAAAGUAGAAGGUGCAAAGA [Ruby 69]	–	–	72.8	43.6
GCUGUCGUAGGAUAUACAUGAGGAUCACCCAUGUGAGAGAAAAAAGUGAGAAAGAAAAGUAGAAGGACGGUAGG [salish99-ex3-105]	–	–	43.1	37.5
AACAUACAUGAGGAUCACCCAUGUCAGGAUAUGCCGGGUUAGAGCCAACUGAAAAACCGUAGAAGGGACGAAAA [Bilbo Confounded 8 - Jieux - Exclusion 1]	–	–	79.5	66.9
AAAAAACAUGAGGAUCACCCAUGUGAGGAUAUGUACGAAAAUAAAUAAAAAUAAAAGUACAGAAGGCACAAAAA [66%, Wbt, 2]	–	–	41.2	35.7
ACCUGACAUGAGGAUCACCCAUGUGAGGAUAUGUACAUCAGGAAAAAAAAACUGAUGUACAGAAGGCACAAGGG [Amethyst 49]	–	–	38.7	23.1
AACAUGUAAGGAUAUGCUGCUCGUCACAAAAGUGAUGAGUAGCAGAAGGUACAUGAGGAUCACCCAUGUAAAGA [JL eternac mod 14]	–	–	111	50.6
AAUAACCGAGGAUAUACAUGAGGAUCACCCAUGUGAACAUCCACGAAAAGGAUUCUGUGUAGAAGGCGGAAACC [Soquar]	–	–	13.4	15.3
AACAGUACAGGAUAUACAUGAGGAUCACCCAUGUAAAAAUAAAAGGGAAUCUCAAAAAGUAGAAGGGUACUGGA [Moding Maslow revisited (73) 13]	–	–	36.3	72.5
GGAAAACAUGAGGAUCACCCAUGUCAGGAUAUACAAAGAAAGAAAGAAAAGAAAGAAAGUAGAAGGGACAAAAG [Amethyst 15]	–	–	31.9	27.1
AGAAUACAUGAGGAUCACCCAUGUGAGGAUAUGUAGAUAAAAAUAAAAUAAAAUAAAUACAGAAGGCGCAAAAG [EX 1 May 20]	–	–	44.9	44.5
CCUAUGUCAGGAUAUCAGUAGUAAAAAAAAAAAAUUACUACUGAGAAGGGACAUGAGGAUCACCCAUGUUCAAA [EX4 313: Super Stable 13]	–	–	66.4	42.4
AAUACACAUGAGGAUCACCCAUGUAAGGAUAUCGAAAAAAAACUAAACAAAAAACAAACGAGAAGGUACAAAAA [Exclusion 1 design 4]	–	–	23.9	30.4
AAAGAGUCAGGAUAUUCGUAUAGAGUAGCGCGACUCUAUACGAAGAAGGGACAUGAGGAUCACCCAUGUAAAAA [Ecls4-I]	–	–	51.1	50.6
ACUAACGGAGGAUAUACUAACAAACCUCAAACAUACAUCAAACAUGAGGAUCACCCAUGUAGAAGGCCGAAACU [JR_Exc002_Sub004]	–	–	52.8	34.4
AAAACGGUAGGAUAUACGAUUUGGAACUAGACCGAGGAACCACAUGAGGAUCACCCAUGUAGAAGGACCAAAAA [EX2 Malc#18]	–	–	10.7	11.9
GAUCCACAUGAGGAUCACCCAUGUAAGGAUAUUUAAAACCGGAGGAAACCCUCCGAAGAAAGAAGGUACAAAAC [Atceabi]	–	–	14.5	14.6
AAAAAAGGAGGAUAUACGAACAUGUCGAAAGACGUGAAGGGACAUGAGGAUCACCCAUGUAGAAGGUUUAAAAA [Mat - Exclusion 2 - JL mod - D85]	–	–	19.2	35.9
AAAAAACAUGAGGAUCACCCAUGUCAGGAUAUCCGGUUCAAAAAAAAAAAAAGGCGUUGGAGAAGGGACAUUCC [Chica Displaced 10 - Jieux - Exclusion 1]	–	–	36.4	28
